# Assay results from paper PMC8949118, “The Transcription Factor SpoVG Is of Major Importance for Biofilm Formation of Staphylococcus epidermidis under In Vitro Conditions, but Dispensable for In Vivo Biofilm Formation”.
# T1: HAT-HA-SpoVG (Staphylococcus epidermidis 1457, UniProt Q8CML1 1-102)
# T1 sequence: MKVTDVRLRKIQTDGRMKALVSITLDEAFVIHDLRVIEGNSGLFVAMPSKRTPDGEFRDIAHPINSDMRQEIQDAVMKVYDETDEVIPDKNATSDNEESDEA
# B1: secA p control probe (dsDNA)
# DNA 1: AGTATAATTTTCTAACTATAAATGATAAGATATATTGTTGTAGGCCAAACAGTTTTTTAGCTAAAGGAGCGAACGAAATG
# DNA 2: CATTTCGTTCGCTCCTTTAGCTAAAAAACTGTTTGGCCTACAACAATATATCTTATCATTTATAGTTAGAAAATTATACT
# B2: icaA probe (dsDNA)
# DNA 1: TAACAACATTCTATTGCAAATTGAAATACTTTCGATTAGCATATGCTTTACAACCTAACTAACGAAAGGTAGGTGAAAAA
# DNA 2: TTTTTCACCTACCTTTCGTTAGTTAGGTTGTAAAGCATATGCTAATCGAAAGTATTTCAATTTGCAATAGAATGTTGTTA
# B3: unlabeled icaA probe (dsDNA)
# DNA 1: TAACAACATTCTATTGCAAATTGAAATACTTTCGATTAGCATATGCTTTACAACCTAACTAACGAAAGGTAGGTGAAAAA
# DNA 2: TTTTTCACCTACCTTTCGTTAGTTAGGTTGTAAAGCATATGCTAATCGAAAGTATTTCAATTTGCAATAGAATGTTGTTA
# Experiments:
# HAT-HA-SpoVG [1] = biological target: T1, HAT-HA-SpoVG; experiment: EMSA; 12 uM SpoVG, 2 mM Mg2+; 20 mM HEPES pH 8.0, 10 mM KCl, 2 mM MgCl2, 0.1 mM EDTA, 0.1 mM DTT, 50 ug/mL BSA, 10% glycerol; 200 fmol probe in 20 uL; 30 min room temperature; 2.5% agarose gel in cold TAE; conditions: protein: recombinant; tags: N-terminal HAT-HA-linker; label: DYE682; blunt
# HAT-HA-SpoVG [2] = biological target: T1, HAT-HA-SpoVG; experiment: EMSA; 2-12 uM SpoVG, 2 mM Mg2+; 20 mM HEPES pH 8.0, 10 mM KCl, 2 mM MgCl2, 0.1 mM EDTA, 0.1 mM DTT, 50 ug/mL BSA, 10% glycerol; 200 fmol probe in 20 uL; 30 min room temperature; 2.5% agarose gel in cold TAE; conditions: protein: recombinant; tags: N-terminal HAT-HA-linker; label: DYE682; blunt
# HAT-HA-SpoVG [3] = biological target: T1, HAT-HA-SpoVG; experiment: competition EMSA; 10x or 20x excess over labeled icaA probe; 20 mM HEPES pH 8.0, 10 mM KCl, 2 mM MgCl2, 0.1 mM EDTA, 0.1 mM DTT, 50 ug/mL BSA, 10% glycerol; 200 fmol probe in 20 uL; 30 min room temperature; 2.5% agarose gel in cold TAE; conditions: protein: recombinant; tags: N-terminal HAT-HA-linker; blunt
binder,measurement,setting,value
B1,binding result,HAT-HA-SpoVG [1],no binding
B2,binding result,HAT-HA-SpoVG [2],binds
B3,binding result,HAT-HA-SpoVG [3],binds
